Laboratory results taken from patent publication US8637465B2, “Fibroblast growth factor receptor-derived peptides binding to NCAM” (Kobenhavns Universitet, priority 2009, dated 2014).
“Also recorded” adds a separate entry of the source.

Tests used:
[1] = target: T1, FGFR Ig2-NCAM F3(1-2) binding (Mus musculus, UniProt P16092); test: SPR analysis of inhibition of FGFR Ig2-NCAM F3(1-2) binding; parameters: species or system mouse FGFR1, rat NCAM; details: 20 μM Ig2 module of FGFR, indicated concentrations of SOS; FIG. 4
T1 construct: AGHHHHHH and amino acids 140-251 of FGFR (SwissProt p16092); made in house; host or cells: Pichia pastoris KM71
T1 sequence (P16092 140-251): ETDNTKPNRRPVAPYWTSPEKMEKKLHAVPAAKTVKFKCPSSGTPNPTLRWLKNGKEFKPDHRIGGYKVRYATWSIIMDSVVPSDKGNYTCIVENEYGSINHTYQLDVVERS
Experimental: The binding of 20 μM Ig2 module of FGFR to the immobilized NCAM F3 modules 1-2 was performed using indicated concentrations of SOS. The experiment was repeated 9 times. Immobilization of the NCAM and FGFR modules and binding analysis were performed using a BIAcore2000 instrument (Biosensor AB, Sweden) at 25° C. using 10 mM sodium phosphate containing 150 mM NaCl (pH 7.4) as running buffer. Data were analyzed by nonlinear curve fitting using the manufacturer's software. The FGFR Ig module 2 and NCAM F3 modules 1-2 were immobilized on sensor chip CM5 using an amine coupling kit (Biosensor AB) as follows: the chip was activated by 20 μl activation solution; the protein was immobilized using 12 μl of 20 μg/ml protein in 10 mM sodium acetate buffer (pH 6.0); the chip was blocked by 35 μl blocking solution. The curves corresponding to the difference between binding to ligand (immobilized molecule) and a blank chip were used for analysis. One of the identified clusters (the first one) is located in the close vicinity of the sites in Ig2 for binding of FGF, heparin and Ig2 (FIG. 3) (Plotnikov et al., 1999; Pellegrini et al., 2000). […] To verify this assumption, we tested sucrose octasulphate (SOS), a well-known heparin analogue, for its ability to inhibit binding of soluble Ig2 to the immobilized NCAM F3 modules.

[2] = target: T2, fibronectin modules (F3(1-2)) of NCAM (Rattus norvegicus, UniProt P13596); test: Binding of FGFR1-Ig2 derived peptides to immobilized fibronectin modules (F3(1-2)) of NCAM; details: FIG. 5 and FIG. 6
T2 construct: amino acids 507-611 and 507-705 of NCAM (SwissProt p13596), respectively; made in house; host or cells: Pichia pastoris KM71
Experimental: Immobilization of the NCAM and FGFR modules and binding analysis were performed using a BIAcore2000 instrument (Biosensor AB, Sweden) at 25° C. using 10 mM sodium phosphate containing 150 mM NaCl (pH 7.4) as running buffer. Data were analyzed by nonlinear curve fitting using the manufacturer's software. The FGFR Ig module 2 and NCAM F3 modules 1-2 were immobilized on sensor chip CM5 using an amine coupling kit (Biosensor AB) as follows: the chip was activated by 20 μl activation solution; the protein was immobilized using 12 μl of 20 μg/ml protein in 10 mM sodium acetate buffer (pH 6.0); the chip was blocked by 35 μl blocking solution. The curves corresponding to the difference between binding to ligand (immobilized molecule) and a blank chip were used for analysis.

[3] = target: T3, FGFR Ig2-Ig3 construct (Mus musculus, UniProt P16092); details: SPR; Kiselyov et al., 2003; read-out: dissociation constant (Kd), NCAM F3 modules 1-2 binding to FGFR Ig2-Ig3 construct; cited from earlier work
T3 construct: the double-module FGFR Ig2-Ig3 construct
T3 sequence (P16092 141-365 limits assumed): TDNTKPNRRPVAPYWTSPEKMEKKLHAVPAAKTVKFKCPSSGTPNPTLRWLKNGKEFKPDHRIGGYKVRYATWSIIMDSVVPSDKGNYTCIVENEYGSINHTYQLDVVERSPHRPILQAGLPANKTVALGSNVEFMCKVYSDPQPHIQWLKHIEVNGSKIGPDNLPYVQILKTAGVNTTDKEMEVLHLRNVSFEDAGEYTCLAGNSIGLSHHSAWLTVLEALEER

[4] = target: T4, FGFR1 Ig2 module (Mus musculus, UniProt P16092); test: SPR binding of soluble NCAM F3 modules 1-2 to immobilized FGFR Ig2 module; details: 25° C., pH 7.4, FIG. 1B, estimated
T4 construct: AGHHHHHH and amino acids 140-251 of FGFR (SwissProt p16092); made in house; host or cells: Pichia pastoris KM71
T4 sequence (P16092 140-251): T1 sequence (P16092 140-251)
Excerpt: (§1) To study the binding properties between the FGFR Ig2 module and NCAM, we used recombinant proteins of the NCAM F3 modules 1-2 and the FGFR1 Ig2 module. Both proteins were properly folded as judged by one-dimensional NMR.
(§2) The Ig2 module of mouse FGFR1 (IIIc isoform) and rat NCAM F3 modules 1-2 were produced. Both proteins were expressed in a KM71 strain of yeast expression system of P. pastoris (Invitrogen, USA). The FGFR Ig module 2 consists of AGHHHHHH and amino acids 140-251 of FGFR (SwissProt p16092) and the combined F3 modules 1 and 2 consist of AGHHHHHH and amino acids 507-611 and 507-705 of NCAM (SwissProt p13596), respectively. For the protein expression the following media were used: BMGH (0.1 M potassium phosphate pH 6.0, 3.4 g/L yeast nitrogen base (without amino acids and ammonium sulphate), 10 g/L ammonium sulphate, 400 μg/L D-biotin, 60 mg/L L-histidine, 2% glycerol) and BMMH (0.1 M potassium phosphate pH 6.0, 3.4 g/L yeast nitrogen base (without amino acids and ammonium sulphate), 10 g/L ammonium sulphate, 400 μg/L D-biotin, 60 mg/L L-histidine, 1% methanol). […]
(§3) Immobilization of the NCAM and FGFR modules and binding analysis were performed using a BIAcore2000 instrument (Biosensor AB, Sweden) at 25° C. using 10 mM sodium phosphate containing 150 mM NaCl (pH 7.4) as running buffer. Data were analyzed by nonlinear curve fitting using the manufacturer's software. […]

[5] = target: T5, NCAM F3 modules 1-2 (Rattus norvegicus, UniProt P13596); test: SPR binding of soluble FGFR Ig2 module to immobilized NCAM F3 modules 1-2; details: 25° C., pH 7.4, FIG. 1A, estimated
T5 construct: amino acids 507-611 and 507-705 of NCAM (SwissProt p13596), respectively; made in house; host or cells: Pichia pastoris KM71
Excerpt: as §1, §2, §3

In the case of `O=S(=O)(O)OC[C@H]1O[C@@](COS(=O)(=O)O)(O[C@H]2O[C@H](COS(=O)(=O)O)[C@@H](OS(=O)(=O)O)[C@H](OS(=O)(=O)O)[C@H]2OS(=O)(=O)O)[C@@H](OS(=O)(=O)O)[C@@H]1OS(=O)(=O)O` [SOS, sucrose octasulphate], the “inhibition of binding of soluble Ig2 to the immobilized NCAM F3 modules” value [1] is reported as “capable of inhibiting; also recorded: inhibitory effect”.

In the case of “AKTVKFK (Derived from FGFR) [SEQ ID NO:2, FGFR1-Ig2 derived peptide (amino acids 171-177)]”, the “binding to the immobilized fibronectin modules (F3(1-2)) of NCAM” value [2] is reported as “binding”.

With “RWLKNGKEFK (Derived from FGFR) [SEQ ID NO:3, FGFR1-Ig2 derived peptide (amino acids 189-198)]” the “binding to the immobilized fibronectin modules (F3(1-2)) of NCAM” value [2] was “binding”.

B1: NCAM F3 modules 1-2: recombinant rat NCAM fibronectin type III modules 1-2 with AGHHHHHH tag (SwissProt p13596) (protein)
chain: AGHHHHHHQADTPSSPSIDRVEPYSSTAQVQFDEPEATGGVPILKYKAEWKSLGEEAWHSKWYDAKEANMEGIVTIMGLKPETRYAVRLAALNGKGLGEISAATEFKTQPVREPSAPKLEGQMGEDGNSIKVNLIKQDDGGSPIRHYLVKYRALASEWKPEIRLPSGSDHVMLKSLDWNAEYEVYVVAENQQGKSKAAHFVFRTSAQ
For B1, the Kd [3] is given as 10 µM and the Kd [4] is given as 12 µM.

B2: FGFR Ig2 module: recombinant Ig2 module of mouse FGFR1 (IIIc isoform): AGHHHHHH and amino acids 140-251 of FGFR (SwissProt p16092) (protein)
chain: AGHHHHHHETDNTKPNRRPVAPYWTSPEKMEKKLHAVPAAKTVKFKCPSSGTPNPTLRWLKNGKEFKPDHRIGGYKVRYATWSIIMDSVVPSDKGNYTCIVENEYGSINHTYQLDVVERS
For B2, the Kd [5] was 35 µM.
